These results are taken from patent publication US20230135471A1, “UBIQUITIN VARIANTS WITH IMPROVED AFFINITY FOR 53BP1” (Integrated DNA Technologies, Inc., priority 2021, published 2023).

The target in test [1] is 53BP1 (amino acids 1484-1603) fused to MBP (Homo sapiens, UniProt Q12888). Kind of test: Biolayer interferometry (BLI) of purified His-tagged Ubvs, 1:1 binding model global fit. To be noted: for Response: second experiment, longer association (360 seconds; i53 90 seconds). As to the method: In order to assess the effect of mutations identified from the two-hybrid screen on the affinity of the Ubvs for 53BP1, Ubvs consisting of the i53 sequence with an N-terminal His tag and short flexible linker plus individual or combinations of screen-identified mutations were purified from E. coli (Table 3). Biolayer interferometry was used to measure the affinity of the purified proteins. Briefly, a purified Ubv was diluted in reaction buffer (1×PBS pH7.4, 0.1 mg/mL BSA, 0.001% Tween 20) to 2 ug/mL. Purified 53BP1 (amino acids 1484-1603) fused to MBP was diluted in reaction buffer to between 20 μM and 10 nM (Table 3, Table 4)). For each Ubv, 8 Ni-NTA sensor tips were hydrated and then loaded with the 2 ug/ml of a Ubv for 30 seconds. Sensor tips were then incubated in reaction buffer for 45 seconds to obtain a baseline. Tips were then moved into either empty buffer or seven different concentrations of purified 53BP1 and the association was measured. Tips were then moved back into reaction buffer and the dissociation was measured. Kon, Koff, and Kd were calculated using a 1:1 binding model using a global fit (Table 4).
A second experiment was performed using CM1 and CM7 using a longer association time (360 seconds) to allow binding to closer approach equilibrium. The BLI response vs 53BP1 fragment concentration was plotted in prism to calculate the Kd using a one site-specific binding nonlinear fit model. An i53 response was plotted on the same graph however the association time used (90 seconds) was shorter due to needing a shorter time to reach equilibrium because of the fast off rate of i53 (FIG. 5B, FIG. 5C, Table 4).

The test system of test [2] is HDR at a Cas9 cut site in MET in HEK293 cells. Nature of the test: HDR (6 nt insert) at MET measured by EcoR1 cleavage. To be noted: Alt-R HDR donor oligo (small insert), CM1 […], IDT-E 1 μM for 24 hours. It is filed as cell-based. The source says: (§1) We tested if our ubiquitin variants provided a further benefit over inhibition of common NHEJ pathway targets alone by using the DNA-PK inhibitor IDT enhancer (IDT-E) in combination with CM1 in the context of both large and small inserts (Table 7). […] Without limiting the claimed subject matter to a particular mode or mechanism of action, we hypothesize that our ubiquitin variants targeting 53BP1 will be a useful in facilitating increased HIDR when used in combination with other inhibitors of NHEJ pathway components.

For test [3], the system named is HDR at a Cas9 cut site in CLTA in K562 cells. Kind of test: HDR insertion of 729 bp GFP coding sequence at CLTA, measured by ONT sequencing. The test is classed as cell-based. To be noted: dsDNA donor (large insert), Ubv 37.5 μM, IDT-E 1 μM for 24 hours. As to the method:
FIG. 12A illustrates use of a ubiquitin variant with high affinity for 53BP1 provides an additional benefit to HDR over the use of a DNA-PK inhibitor alone. […] Ubiquitin variants were delivered alongside 2 μM Cas9 RNP at 37.5 μM final concentration. IDT-E was added to media post nucleofection for 24 hours at 1 μM final dose. Double stranded DNA donor with 200 bp homology arms was delivered at 1.5 μg per nucleofection.
as §1

For test [4], the system named is HDR at HPRT1 in HEK293 cells that constitutively express HiFi Cas9 / Jurkat cells. Nature of the test: HDR at HPRT1 by EcoR1 cleavage assay, Ubv delivered as expression plasmid. The test is classed as cell-based. To be noted: 154 ng plasmid encoding His-tagged Ubv, versus LbCas12a crRNA plasmid negative control. As to the method: Error bars indicate the standard deviation from two replicates.
In order to test if CM1 is effective at increasing HDR rates when delivered in other forms, plasmid or mRNA encoding CM1 was introduced into cells and the effects on HDR rates were analyzed. […] After 72 hours, genomic DNA was extracted using QuickExtract (Lucigen) and editing was analyzed by PCR amplification of the HPRT1 target site followed by EcoR1 restriction enzyme digestion. Digested product was run on a Fragment Analyzer (AATI).

For test [5], the system named is HDR at HPRT1 in HEK293 cells. Nature of the test: HDR at HPRT1 by EcoR1 cleavage assay, tag-free versus His-tagged CM1 protein. The test is classed as cell-based. To be noted: HEK293, HPRT1, 50 μM to […] ubiquitin variant. As to the method: Data is shown for two biological replicates with lines connecting the means. The dashed line indicates the level of EcoR1 cleavage when no enhancer is used (n=3, standard deviation <2%).
A tag-free version of CM1 (CM1tf, SEQ ID NO:482) was compared with the His6-tagged version of CM1 (SEQ ID NO:241) for their ability to enhance HDR in HEK293 cells as has been described in previous examples. Briefly, 2 uM Cas9 RNP targeting a site in HPRT1 and 2 uM ssDNA donor containing 40 bp homology arms flanking a 6 bp EcoR1 cut site insert sequence were delivered into HEK293 cells with varying amounts of CM1tf (CM1tf, SEQ ID NO:482) or His-tagged CM1 (CM1; SEQ ID NO:241) using Lonza nucleofection. Genomic DNA was isolated after 48 hours, and editing was measured using an EcoR1 cleavage assay.

Test [6] addresses T1, fragment of 53BP1 (a.a. 1221-1718) (Homo sapiens, UniProt Q12888).
T1 construct: a fragment of 53BP1 (a.a. 1221-1718); expressed in transfected cells; host or cells: E. coli DHM1
Kind of test: Individual two-hybrid screen of amino acid changes, percent GFP (reporter) positive cells by flow cytometry. The test is classed as cell-based. The text has this:
(§2) In order to identify mutations that improve the affinity of i53 for 53BP1, the bacterial adenylate cyclase two-hybrid system (BACTH system) was used to screen for interaction between the two proteins. This method makes use of a B. pertussis calmodulin-dependent adenylate cyclase toxin. The catalytic domain of the toxin can be separated into two fragments (T18 and T25) that are able to associate in the presence of calmodulin but have minimal activity in its absence. If bait and prey proteins fused to T18 and T25 interact, then the catalytic activity is restored and cAMP is produced. In E. coli, cAMP binds to catabolite activator protein (CAP) that acts as a transcriptional activator for several genes. By expressing these fusion proteins in an E. coli strain that lacks endogenous adenylate cyclase and naturally lacks calmodulin, cAMP regulated protein expression can be used as a readout of bait-prey interaction. We engineered the screen so that eGFP will be expressed under the control of a cAMP-regulated promoter. The coding sequence for a fragment of 53BP1 (a.a. 1221-1718) containing the i53 interacting regions and i53 were cloned into T18 and T25 adenylate cyclase expression plasmids such that fusion proteins of each would be expressed. If a Ubv interacts with 53BP1, the T18 and T25 fragments will be brought together, adenylate cyclase activity will be restored, cAMP will be produced, and some portion of the bacterial population will be GFP positive.
(§3) There was a high degree of correlation between the two experiments and between replicates (FIG. 2). From these screens, about 230 amino acid changes were identified for which the average enrichment was positive for at least one of the experiments (Table 1). […] To validate that the amino acid changes identified from the pooled screen are reproducible on an individual basis, 24 amino acid changes identified from this screen were introduced individually into the i53 fusion protein plasmid and tested by flow cytometry for their effect on the percent positive population relative to i53 (FIG. 3). There was a strong correlation between the enrichment measured from the pooled screen and the percent reporter positive cells when mutations were screened individually.
A general note: Flow cytometry measures light scatter and fluorescence of single cells or particles in a stream.

Test [7] deals with HDR. To be noted: plasmid delivery, adeno-associated virus mediated gene delivery, or delivery of mRNA; cited from earlier work.
Test [8] addresses T1, fragment of 53BP1 (a.a. 1221-1718). Nature of the test: BACTH two-hybrid pooled screen in E. coli, FACS sorting of GFP positive cells and NGS enrichment of i53 amino acid changes. The test is classed as cell-based.
Source text: as §2
A plasmid library was made consisting of Ubv-adenylate cyclase fragment fusion protein plasmids that had on average a single codon within the i53 coding region exchanged for a random NNK codon. Plasmids were transformed into DHM1 cells that lack endogenous adenylate cyclase and contain the plasmid for expression of the 53BP1 fragment fused to one of the adenylate cyclase fragments. Expression of eGFP was used as a readout of bait-prey interaction using fluorescence activated cell sorting (FACS) to sort for GFP positive bacteria. Plasmid DNA was isolated from both the sorted GFP positive bacteria (Positive) and from the original pre-sort population (Input) and was sequenced using NGS. Counts were merged for mutations that result in the same amino acid change using Enrich2 [25]. Enrichment was calculated as enrichment=log 2((read count for an amino acid change in the positive population/read count for an amino acid change in the input)/(synonymous change read count in the positive population/synonymous change read count in the input)). […] For each experiment, DHM1 cells were transformed with the Ubv fusion protein plasmid library in two separate replicates using a gene pulser (Bio-Rad). The i53-adenylate cyclase fragment fusion protein (published i53 peptide, SEQ ID NO:2) plasmid was also introduced separately as a control to estimate selection pressure. Cells were then grown and sorted using FACS and GFP positive cells were collected. Two separate experiments were conducted on separate days using different levels of selection pressure resulting in a different percent GFP positive for the i53 population (i.e. for cells that express published i53 peptide (SEQ ID NO:2) fused to one of the adenylate cyclase fragments).
as §3

Test [9] relates to 53BP1 foci. To be noted: introduced into cells; cited from earlier work.

T1 sequence (Q12888 1221-1718): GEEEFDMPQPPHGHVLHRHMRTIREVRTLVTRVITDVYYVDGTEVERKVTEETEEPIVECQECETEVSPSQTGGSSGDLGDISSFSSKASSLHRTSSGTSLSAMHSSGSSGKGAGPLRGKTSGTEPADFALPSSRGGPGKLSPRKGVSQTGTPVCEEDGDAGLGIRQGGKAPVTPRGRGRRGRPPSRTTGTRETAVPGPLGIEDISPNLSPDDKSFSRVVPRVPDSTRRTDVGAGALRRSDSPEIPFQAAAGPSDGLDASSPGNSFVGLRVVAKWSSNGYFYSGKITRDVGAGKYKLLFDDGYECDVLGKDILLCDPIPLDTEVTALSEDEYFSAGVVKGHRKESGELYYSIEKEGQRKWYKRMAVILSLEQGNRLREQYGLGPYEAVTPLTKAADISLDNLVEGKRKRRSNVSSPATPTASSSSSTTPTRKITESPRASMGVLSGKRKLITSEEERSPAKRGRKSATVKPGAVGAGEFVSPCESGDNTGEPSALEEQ
53BP1 (amino acids 1484-1603) fused to MBP, sequence (Q12888 1484-1603, looked up): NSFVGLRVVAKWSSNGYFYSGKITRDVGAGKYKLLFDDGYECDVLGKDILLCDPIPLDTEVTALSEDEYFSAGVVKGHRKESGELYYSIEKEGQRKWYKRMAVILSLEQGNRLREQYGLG

For the substance “CM1: i53 with K6R, T7M, T12M, T14E, K33H, A46Q, S65P, L67K, H68M; N-terminal His tag”, the Response in test [1] (53BP1 0.0102 μM) amounted to 0.4913; in test [1] (53BP1 0.0511 μM) it was 1.3298; in test [1] (53BP1 0.1022 μM), 1.6825; in [1] (53BP1 0.2045 μM), 2.0092; in test [1] (53BP1 1.02 μM) it was 2.5002; in [1] (53BP1 5.11 μM) it was 2.738. For the same substance, the Response in test [1] (53BP1 20.5 μM) was 2.9739. The “rate of HDR” value in [2] and in test [3] was “increase rates of HDR” in each case. In addition, the HDR rate entry in test [4] is listed as “larger increase in HDR rate”.

Take CM1tf: tag-free version of CM1: the “ability to enhance HDR” value in [5] is given as “equivalent to that of His-tagged CM1”.

As to “CM7: i53 with K6R, K33H, A46Q, S65P; N-terminal His tag”, the Response in [1] (53BP1 0.0102 μM) is on record as 0.099; in test [1] (53BP1 0.0511 μM), 0.3578; in [1] (53BP1 0.1022 μM) it was 0.5715; in test [1] (53BP1 0.2045 μM) it was 0.8611; in test [1] (53BP1 1.02 μM), 1.5108; in test [1] (53BP1 5.11 μM), 2.0067. Also, the Response in [1] (53BP1 20.5 μM) is given as 2.4923.

“i53 DM: 53BP1 binding deficient i53 variant with P69L, L70V [reference compound]”: in test [1] (1:1 binding model, global fit over all 53BP1 concentrations), the “KD (M)” value is listed as “Response was too low to get a good fit to the data”.

“i53: published ubiquitin variant inhibitor of 53BP1 (Canny et al.); tested with N-terminal His tag and linker (SEQ ID NO:3) [reference compound]”: the Response was found to be 0.0176 in test [1] (53BP1 0.0102 μM); 0.0537 in test [1] (53BP1 0.0511 μM); 0.104 in test [1] (53BP1 0.1022 μM); 0.1877 in [1] (53BP1 0.2045 μM); 0.6247 in test [1] (53BP1 1.02 μM); 1.2658 in test [1] (53BP1 5.11 μM). Moreover, the Response in test [1] (53BP1 20.5 μM) stood at 1.954. For the same substance, the “Percent GFP Positive Rep 1” value in test [6] (replicate 1, amino acid change in i53 fusion protein plasmid) is 9%. Besides, in test [6] (replicate 2), the “Percent GFP Positive Rep 2” value stood at 7.6%. Moreover, the “Percent GFP Positive Rep 3” value in [6] (replicate 3) is listed as 11.8%. Further, in test [7], the “rates of HDR” value is on record as “improve the rates of HDR”. The HDR rate result in test [4] is listed as “increase in HDR rates”. The i53 percent positive result in test [8] (experiment one) was “approximately 30%”. The GFP positive population is listed as about 3% in [8] (high selection pressure experiment) and about 17% in test [8] (low selection pressure experiment). Moreover, in [9], the “formation of ionizing radiation induced 53BP1 foci” value is on record as “inhibited the formation ionizing radiation induced 53BP1 foci”.
